Test results as given in article PMC3958349.
One block for each substance: values may come before it.

Legend:
[1] = target: eGFP-GR (wild-type mouse glucocorticoid receptor with eGFP fused to its N-terminal end) (mouse) (UniProt P06537); test: number and brightness (N&B) analysis; living BHK cells transiently transfected with pEGFP-GR or pEGFP-GR^A465T; 10 µM 21OH-6,19OP; nuclear brightness ε
[2] = target: eGFP-GR (wild-type mouse glucocorticoid receptor with eGFP fused to its N-terminal end) (mouse) (UniProt P06537); test: number and brightness (N&B) analysis; living BHK cells transiently transfected with pEGFP-GR or its mutants; 100 nM (0.1 µM) Dex or 100 nM Cort for at least 1 h; nuclear brightness ε relative to vehicle; ligand washout also tested (Cort withdrawal reduced the dimers, Dex washout did not)
[3] = target: eGFP-GR (wild-type mouse glucocorticoid receptor with eGFP fused to its N-terminal end) (mouse) (UniProt P06537); test: number and brightness (N&B) analysis; living GR-null MEF cell lines stably expressing eGFP-GR or its mutants at endogenous levels; 100 nM Dex or 100 nM Cort; nuclear brightness ε
eGFP-GR^A465T (mouse) [4] = target: eGFP-GR^A465T (mouse) (UniProt P06537); test: number and brightness (N&B) analysis; living 3617 cells (tetracycline to inhibit the stable GFP-GR) transiently transfected with pEGFP-GR or its mutants; 100 nM Dex or 100 nM Cort for at least 30 min; nuclear brightness ε
eGFP-GR^A465T (mouse) [5] = target: eGFP-GR^A465T (mouse) (UniProt P06537); test: number and brightness (N&B) analysis; living GR-null MEF cell lines stably expressing eGFP-GR or its mutants at endogenous levels; 100 nM Dex or 100 nM Cort; nuclear brightness ε
mCherry-GR (wild type) = mCherry-GR (wild type) (UniProt P06537); test: number and brightness (N&B) analysis; living 3617 cells transiently expressing mCherry, mCherryGRwt, GFP and/or GFP-p65; 300 nM Cort and/or 10 ng/ml TNF-α; nuclear brightness ε in the green and red channels

Sequence of mCherry-GR (wild type) (P06537 whole entry): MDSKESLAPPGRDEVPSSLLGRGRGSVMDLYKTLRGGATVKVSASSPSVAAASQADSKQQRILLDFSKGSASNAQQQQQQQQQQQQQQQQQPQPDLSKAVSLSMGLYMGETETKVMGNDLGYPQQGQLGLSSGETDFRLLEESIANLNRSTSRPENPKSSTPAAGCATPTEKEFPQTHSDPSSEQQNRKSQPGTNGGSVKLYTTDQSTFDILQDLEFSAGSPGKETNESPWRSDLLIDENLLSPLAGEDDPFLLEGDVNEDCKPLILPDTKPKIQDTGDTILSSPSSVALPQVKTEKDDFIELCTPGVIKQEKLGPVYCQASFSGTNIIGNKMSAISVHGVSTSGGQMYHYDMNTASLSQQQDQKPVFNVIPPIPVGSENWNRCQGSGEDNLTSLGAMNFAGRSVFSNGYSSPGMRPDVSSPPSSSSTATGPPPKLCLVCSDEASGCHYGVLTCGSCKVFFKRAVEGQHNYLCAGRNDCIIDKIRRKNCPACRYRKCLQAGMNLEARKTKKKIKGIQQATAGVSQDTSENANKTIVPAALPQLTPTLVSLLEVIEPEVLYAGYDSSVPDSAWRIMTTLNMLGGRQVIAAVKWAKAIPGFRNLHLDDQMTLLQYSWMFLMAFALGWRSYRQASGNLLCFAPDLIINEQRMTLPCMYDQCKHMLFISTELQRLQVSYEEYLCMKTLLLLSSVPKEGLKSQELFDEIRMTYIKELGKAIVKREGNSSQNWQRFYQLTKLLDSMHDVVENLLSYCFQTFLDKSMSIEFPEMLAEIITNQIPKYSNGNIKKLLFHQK

- stoichiometry N [1]: 2
- stoichiometry N [2]: 2
- stoichiometry N [3]: 2
Substance: eGFP-GR (wild-type mouse glucocorticoid receptor with eGFP fused to its N-terminal end) (from UniProt P06537 1-792)

- stoichiometry N (eGFP-GR^A465T (mouse) [4]): 2
- stoichiometry N (eGFP-GR^A465T (mouse) [5]): 2
Substance: eGFP-GR^A465T (from UniProt P06537 1-792) (receptor)

- stoichiometry N (mCherry-GR (wild type)): 2
Substance: mCherry-GR (wild type) (from UniProt P06537 1-792) (receptor)
